Reference: publication PMC4673700
pKd: −log10 of the molar value. Where two headings read alike, the source gives them in different places.

Tests used:
[1] = target: GST-fused galectin-1 protein (human) (UniProt P09382)
Aflibercept (human) = assay: BLI; BLItz; aflibercept, PNGase F-treated aflibercept, VEGFR1-Fc or VEGFR2-Fc immobilised on Protein A-coated biosensors; GST-galectin-1 as analyte at various concentrations; PBS; values of empty sensors subtracted
[2] = target: PNGase F-treated aflibercept (human); assay: as above
[3] = target: PNGase F-treated aflibercept (human); assay: as above; remark: listed apart in the source

GST-fused galectin-1 protein, sequence (P09382 whole entry, the tested form may be a part): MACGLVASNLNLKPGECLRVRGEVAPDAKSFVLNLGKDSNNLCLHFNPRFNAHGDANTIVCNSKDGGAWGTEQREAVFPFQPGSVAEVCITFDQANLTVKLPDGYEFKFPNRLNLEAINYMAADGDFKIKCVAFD
GST-fused galectin-1 protein (human), sequence (P09382 whole entry, the tested form may be a part): as above
Aflibercept (Fc fusion), sequence (chain): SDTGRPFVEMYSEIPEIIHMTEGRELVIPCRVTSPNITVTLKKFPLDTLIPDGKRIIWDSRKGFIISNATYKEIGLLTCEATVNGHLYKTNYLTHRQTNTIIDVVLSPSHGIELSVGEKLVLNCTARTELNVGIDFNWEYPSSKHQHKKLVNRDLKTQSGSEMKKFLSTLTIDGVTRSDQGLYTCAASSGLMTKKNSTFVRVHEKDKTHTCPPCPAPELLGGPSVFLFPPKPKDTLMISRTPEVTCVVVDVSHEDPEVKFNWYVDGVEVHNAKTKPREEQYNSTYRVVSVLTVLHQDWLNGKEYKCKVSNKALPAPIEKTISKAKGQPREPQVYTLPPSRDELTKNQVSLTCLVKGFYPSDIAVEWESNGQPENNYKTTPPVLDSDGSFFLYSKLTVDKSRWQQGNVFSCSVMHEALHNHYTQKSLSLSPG

Row | HRMEC proliferation (RealTime-Glo, relative to PBS) with 10 μg/ml galectin-1 for 48 h with 7.5 μg/ml aflibercept (2.77 without aflibercept) [1] | pKd (Aflibercept (human)) | koff (Aflibercept (human)) | kon (Aflibercept (human)) | pKd [2] | koff [2] | kon [2] | pKd [3] | Substance
1 | 0.96 fold change |  |  |  |  |  |  |  | Aflibercept (Fc fusion)
2 |  | 7.63 | 0.000371 s⁻¹ | 15700 M⁻¹ s⁻¹ | 6.06 | 0.00531 s⁻¹ | 6120 M⁻¹ s⁻¹ | 6.06 | GST-fused galectin-1 protein (from UniProt P09382 1-135) (natural protein)
